Patent publication US20230287090A1 (FEINSTEIN INSTITUTES FOR MEDICAL RESEARCH, published 2023)
Residue numbers refer to the chain shown, from its start. Read-outs that look alike come from different tables or passages of the source.

T1: TN
T1 single chain: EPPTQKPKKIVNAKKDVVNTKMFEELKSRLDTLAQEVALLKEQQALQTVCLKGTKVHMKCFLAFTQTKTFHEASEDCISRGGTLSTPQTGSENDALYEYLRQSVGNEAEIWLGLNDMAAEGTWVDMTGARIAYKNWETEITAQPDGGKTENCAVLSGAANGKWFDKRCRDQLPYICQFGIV

B1: Clone 27B12 (mAb8) (antibody, V domains shown)
VH: DVKLVESGGGLVKLGGSLKLSCAASGFTFSTDYMSWVRQSPEKRLELVAAINSNGGTTYYPDTVKGRFIISRDNAKNTLYLQMSSLRSEDTALYYCARQVKNGLDYWGQGTSVTVSS
VL: DIQMTQTTSSLSASLGDRVTISCRASQDISNYLNWYQQKPDGTVKLLIYKTSRLHSGVPSRFRGSGSGTDYSLTISNLEEEDVATYFCQQGNTLPPTFGGGTKLEIK
B2: 23F6 (mAb5) (antibody, V domains shown)
VH: B1 VH with T31S, D32S, S40T, S53N, I69T, R87K, A97T, V100G
VL: B1 VL with S30G, Y32L, Y49S, K50Y, R63S, S76T, E80Q, V83I, G91A, T102S
B3: Clone 25B2 (mAb6) (antibody, V domains shown)
VH: B1 VH with K3N, A24D, T31S, D32Y, S40T, T57R, I69T, R87K, V100G
VL: B1 VL with Y32H, V44I, K50Y, R63S, Y71F, T74S, E80Q, V83I, N92K
B4: Clone 18B1 (mAb2) (antibody, V domains shown)
VH: B1 VH with K13N, T31S, S40I, I69T, R87K, V100G, L104M
VL: B1 VL with Y32H, K39R, K50Y, R63S, L73F, S76T, E79D, E80Q, V83I, N92K

Experiments:
[1] = molecular target: T2, Recombinant receptor-binding motif (RBM, residues 437-508) of SARS-CoV-2 spike (S) protein with N-terminal … (SARS-CoV-2, UniProt P0DTC2 437-508)
TN = molecular target: T1, TN
[2] = molecular target: T2, Recombinant receptor-binding motif …; remark: listed apart in the source
[3] = molecular target: T2, Recombinant receptor-binding motif …; remark: listed apart in the source

Binder | Kd [1] [nM] | Kd (TN) [nM] | Kd [2] [nM] | Kd [3] [nM]
B1 | 17.4 | 2.02 | 17.4 | 57.4
B2 |  | 8.03 |  | 
B3 | 180 | 0.915 | 180 | 
B4 | 62.8 | 0.114 | 62.8 | 
